In publication PMC9250616 (2022):

Biological target: T1, Protective antigen (Bacillus anthracis, UniProt P13423)
T1 chain: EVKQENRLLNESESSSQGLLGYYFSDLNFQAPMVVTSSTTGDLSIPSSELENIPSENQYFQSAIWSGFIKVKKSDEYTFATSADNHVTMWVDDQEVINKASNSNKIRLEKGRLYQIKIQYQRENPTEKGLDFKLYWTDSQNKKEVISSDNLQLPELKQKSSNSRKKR

B1: CMG2 (protein)
chain: QEQPSCRRAFDLYFVLDKSGSVANNWIEIYNFVQQLAERFVSPEMRLSFIVFSSQATIILPLTGDRGKISKGLEDLKRVSPVGETYIHEGLKLANEQIQKAGGLKTSSIIIALTDGKLDGLVPSYAEKEAKISRSLGASVYCVGVLDFEQAQLERIADSKEQVFPVKGGFQALKGIINSILAQSCTEILELQPSSVCVGEEFQIVLSGRGFMLGSRNGSVLCTYTVNETYTTSVKPVSVQLNSMLCPAPILNKAGETLDVSVSFNGGKSVISGSLIVTATECSNG
B1 showed a Kd of 460 pM.
